These results are taken from patent US10487116B2, “Immunotherapy against several tumors, such as lung cancer, including NSCLC” (IMMATICS BIOTECHNOLOGIES GMBH, priority 2013, dated 2019).

One experiment concerns the target HLA-A*0201 (Homo sapiens, UniProt P04439, D140Y/D185E/D98H/E176V/E277Q/G131W/G231S/I119V/I121R/I166T/I218V/L300P/L318F/N151K/N90K/P208A/P217A/Q86G/Q94H/R138H/R169H/T345S). Description: UV-ligand exchange with ELISA of stabilized MHC complexes. It is filed as binding. The conditions noted are these: ELISA detecting β2m of stabilized MHC complexes. The text has this:
Candidate peptides for the vaccines according to the present invention were further tested for immunogenicity by in vitro priming assays. The individual peptide-MHC complexes required for these assays were produced by UV-ligand exchange, where a UV-sensitive peptide is cleaved upon UV-irradiation, and exchanged with the peptide of interest as analyzed. Only peptide candidates that can effectively bind and stabilize the peptide-receptive MHC molecules prevent dissociation of the MHC complexes. To determine the yield of the exchange reaction, an ELISA was performed based on the detection of the light chain (β2m) of stabilized MHC complexes. The assay was performed as generally described in Rodenko et al. (Rodenko B, Toebes M, Hadrup S R, van Esch W J, Molenaar A M, Schumacher T N, Ovaa H. Generation of peptide-MHC class I complexes through UV-mediated ligand exchange. Nat Protoc. 2006; 1(3):1120-32.).
96 well MAXISorp plates (NUNC) were coated over night with 2 ug/ml streptavidin in PBS at room temperature, washed 4× and blocked for 30 min at 37° C. in 2% BSA containing blocking buffer. Refolded HLA-A*0201/MLA-001 monomers served as standards, covering the range of 8-500 ng/ml. Peptide-MHC monomers of the UV-exchange reaction were diluted 100 fold in blocking buffer. Samples were incubated for 1 h at 37° C., washed four times, incubated with 2 ug/ml HRP conjugated anti-β2m for 1 h at 37° C., washed again and detected with TMB solution that is stopped with […]. Absorption was measured at 450 nm.
On to “RLLJAAENFL (RLLAAENFL; listed as Homo sapiens) [SEQ ID NO 49]”, for which the “Average exchange yield in %” value came to 47%.

Still in this experiment, the particulars now being: class symbol.
Consider “KLVEFDFLGA (listed as Homo sapiens) [SEQ ID NO 54]”, for which the Exchange yield result was “+++ (50%-70%, +++)”. Take “SLWGGDVVL (listed as Homo sapiens) [SEQ ID NO 42]”: the Exchange yield result is “+++ (50%-70%, +++)”. On to “YVYQNNIYL (listed as Homo sapiens) [SEQ ID NO 68]”, for which the Exchange yield entry is reported as “++ (20%-49% = ++)”. Still for that read-out and setting: the entry for “ILQDRLNQV (listed as Homo sapiens) [SEQ ID NO 67]” is “++ (20%-49% = ++)”. Same read-out and setting: under “KVLEILHRV (listed as Homo sapiens) [SEQ ID NO 65]” stands “+++ (50%-70%, +++)”; under “RVLPPSALQSV (listed as Homo sapiens) [SEQ ID NO 87]”, “+++ (50%-70%, +++)”; under “ILMGTELTQV (listed as Homo sapiens) [SEQ ID NO 84]”, “++ (20%-49% = ++)”.

On to “KLFGEKTYL (listed as Homo sapiens) [SEQ ID NO 26]”, for which the Exchange yield entry is reported as “++ (20%-49% = ++)”.

“ILVSWLPRL (listed as Homo sapiens) [SEQ ID NO 59]”: the Exchange yield result is “++++ (>70 = ++++)”. Still for that read-out and setting: under “SLIDADPYL (listed as Homo sapiens) [SEQ ID NO 58]” stands “+++ (50%-70%, +++)”; under “ILFEINPKL (listed as Homo sapiens) [SEQ ID NO 1]”, “++++ (>70 = ++++)”. As to “ALASVIKEL (listed as Homo sapiens) [SEQ ID NO 89]”, the Exchange yield entry is on record as “+++ (50%-70%, +++)”. Same read-out and setting: the entry for “AVVEFLTSV (listed as Homo sapiens) [SEQ ID NO 19]” is “+++ (50%-70%, +++)”; for “SLYKGLLSV (listed as Homo sapiens) [SEQ ID NO 56]” it is “++ (20%-49% = ++)”. Same read-out and setting: the entry for “TVAEVIQS V (TVAEVIQSV; listed as Homo sapiens) [SEQ ID NO 27]” is “+++ (50%-70%, +++)”. Still for that read-out and setting: the entry for “SLVAVELEKV (listed as Homo sapiens) [SEQ ID NO 90]” is “+++ (50%-70%, +++)”; for “GLYPDAFAPV (listed as Homo sapiens) [SEQ ID NO 25]” it is “+++ (50%-70%, +++)”. On to “HLLEDIAHV (listed as Homo sapiens) [SEQ ID NO 92]”, for which the Exchange yield result is listed as “++ (20%-49% = ++)”. On the same count and under the same terms, under “ALVDHTPYL (listed as Homo sapiens) [SEQ ID NO 20]” stands “++ (20%-49% = ++)”. The same measure, in the same setting: under “VVDKTLLLV (listed as Homo sapiens) [SEQ ID NO 60]” stands “++ (20%-49% = ++)”; under “ALYGRLEVV (listed as Homo sapiens) [SEQ ID NO 81]”, “++++ (>70 = ++++)”; under “AMFENFVSV (listed as Homo sapiens) [SEQ ID NO 91]”, “+++ (50%-70%, +++)”. Same read-out and setting: under “ALYDSVILL (listed as Homo sapiens) [SEQ ID NO 75]” stands “++ (20%-49% = ++)”; under “AMATESILHFA (listed as Homo sapiens) [SEQ ID NO 86]”, “+++ (50%-70%, +++)”; under “FLHHLEIEL (listed as Homo sapiens) [SEQ ID NO 23]”, “+++ (50%-70%, +++)”. For the substance “SLLPVDIRQYL (listed as Homo sapiens) [SEQ ID NO 50]”, the Exchange yield entry was “+++ (50%-70%, +++)”. Turning to “TLSSIKVEV (listed as Homo sapiens) [SEQ ID NO 5]”, the Exchange yield entry is recorded as “+++ (50%-70%, +++)”.

Turning to “KILEDVVGV (listed as Homo sapiens) [SEQ ID NO 70]”, the Exchange yield result is listed as “+++ (50%-70%, +++)”.

For the substance “FLVDGSWSV (listed as Homo sapiens) [SEQ ID NO 24]”, the Exchange yield entry is “+++ (50%-70%, +++)”. For “ILFPDIIARA (listed as Homo sapiens) [SEQ ID NO 62]”, the Exchange yield entry was “++++ (>70 = ++++)”. The same measure, in the same setting: the entry for “SLIEDLILL (listed as Homo sapiens) [SEQ ID NO 12]” is “++ (20%-49% = ++)”.

Turning to “KIQEMQHFL (listed as Homo sapiens) [SEQ ID NO 2]”, the Exchange yield result is reported as “+++ (50%-70%, +++)”. Same read-out and setting: the entry for “ALMDKEGLTAL (listed as Homo sapiens) [SEQ ID NO 9]” is “++++ (>70 = ++++)”; for “KLDETNNTL (listed as Homo sapiens) [SEQ ID NO 6]” it is “+++ (50%-70%, +++)”; for “RLLGPSAAADILQL (listed as Homo sapiens) [SEQ ID NO 17]” it is “++ (20%-49% = ++)”. The same measure, in the same setting: the entry for “YLIHFPVSV (listed as Homo sapiens) [SEQ ID NO 13]” is “+ (<20% = +)”. With “AIMGFIGFFV (listed as Homo sapiens) [SEQ ID NO 45]”, the Exchange yield result was “+ (<20% = +)”. For “KIYNEFISV (listed as Homo sapiens) [SEQ ID NO 30]”, the Exchange yield result is on record as “++ (20%-49% = ++)”. Same read-out and setting: the entry for “VLAPLFVYL (listed as Homo sapiens) [SEQ ID NO 37]” is “+++ (50%-70%, +++)”; for “TLYPHTS (TLYPHTSQV; listed as Homo sapiens) [SEQ ID NO 18]” it is “++ (20%-49% = ++)”; for “YLPHAPPFA (listed as Homo sapiens) [SEQ ID NO 53]” it is “+++ (50%-70%, +++)”. Regarding “GVLENIFGV (listed as Homo sapiens) [SEQ ID NO 47]”, the Exchange yield entry was “++++ (>70 = ++++)”.

Turning to “RLLJAAENFL (RLLAAENFL; listed as Homo sapiens) [SEQ ID NO 49]”, the Exchange yield entry is reported as “++ (20%-49% = ++)”.

In the case of “FLIPIYHQV (listed as Homo sapiens) [SEQ ID NO 22]”, the Exchange yield result is “+++ (50%-70%, +++)”. The same measure, in the same setting: under “VLFPNLKTV (listed as Homo sapiens) [SEQ ID NO 35]” stands “++ (20%-49% = ++)”; under “AMSSKFFLV (listed as Homo sapiens) [SEQ ID NO 69]”, “++ (20%-49% = ++)”. The same measure, in the same setting: the entry for “SILTIEDGIFEV (listed as Homo sapiens) [SEQ ID NO 41]” is “++ (20%-49% = ++)”. On the same count and under the same terms, the entry for “KLLEYIEEI (listed as Homo sapiens) [SEQ ID NO 71]” is “++ (20%-49% = ++)”; for “VLSVVEVTL (listed as Homo sapiens) [SEQ ID NO 10]” it is “++++ (>70 = ++++)”. As to “TLISRLPAV (listed as Homo sapiens) [SEQ ID NO 61]”, the Exchange yield result is reported as “++++ (>70 = ++++)”. The same measure, in the same setting: under “SLLAQNTSWLL (listed as Homo sapiens) [SEQ ID NO 74]” stands “+++ (50%-70%, +++)”; under “KLSWDLIYL (listed as Homo sapiens) [SEQ ID NO 32]”, “+++ (50%-70%, +++)”. The same measure, in the same setting: the entry for “GLAEDIDKGEV (listed as Homo sapiens) [SEQ ID NO 57]” is “++ (20%-49% = ++)”; for “NLLAEIHGV (listed as Homo sapiens) [SEQ ID NO 44]” it is “++++ (>70 = ++++)”; for “KLLTEVHAA (listed as Homo sapiens) [SEQ ID NO 72]” it is “+++ (50%-70%, +++)”. On the same count and under the same terms, the entry for “SLYDNQITTV (listed as Homo sapiens) [SEQ ID NO 78]” is “++ (20%-49% = ++)”; for “ALLRTVVSV (listed as Homo sapiens) [SEQ ID NO 33]” it is “++++ (>70 = ++++)”.

For the substance “KIVDFSYSV (listed as Homo sapiens) [SEQ ID NO 85]”, the Exchange yield entry is listed as “+++ (50%-70%, +++)”. For the substance “ALWEKNTHL (listed as Homo sapiens) [SEQ ID NO 82]”, the Exchange yield entry is on record as “+++ (50%-70%, +++)”. On the same count and under the same terms, the entry for “GLIEIISNA (listed as Homo sapiens) [SEQ ID NO 48]” is “+++ (50%-70%, +++)”; for “ALFPHLLQPV (listed as Homo sapiens) [SEQ ID NO 43]” it is “+++ (50%-70%, +++)”; for “KLAVALLAA (listed as Homo sapiens) [SEQ ID NO 15]” it is “++ (20%-49% = ++)”. Take “TLTNIIHNL (listed as Homo sapiens) [SEQ ID NO 46]”: the Exchange yield result is “+++ (50%-70%, +++)”. Turning to “TVIGFLLPFA (listed as Homo sapiens) [SEQ ID NO 16]”, the Exchange yield result is recorded as “++++ (>70 = ++++)”. For “NLIEKSIYL (listed as Homo sapiens) [SEQ ID NO 4]”, the Exchange yield result is “++ (20%-49% = ++)”.

For the substance “AMLAVLHTV (listed as Homo sapiens) [SEQ ID NO 64]”, the Exchange yield result is “++ (20%-49% = ++)”. For “KIQEILTQV (listed as Homo sapiens) [SEQ ID NO 66]”, the Exchange yield result was “++ (20%-49% = ++)”.
